Source: patent US20030103986A1 (ZymoGenetics, published 2003)

B1: TACI (d1-29)-Fc5 (Fc fusion)
chain: AMRSCPEEQYWDPLLGTCMSCKTICNHQSQRTCAAFCRSLSCRKEQGKFYDHLLRDCISCASICGQHPKQCAYFCENKLRSPVNLPPELRRQRSGEVENNSDNSGRYQGLEHRGSEASPALPGLKEPKSSDKTHTCPPCPAPEAEGAPSVFLFPPKPKDTLMISRTPEVTCVVVDVSHEDPEVKFNWYVDGVEVHNAKTKPREEQYNSTYRVVSVLTVLHQDWLNGKEYKCKVSNKALPSSIEKTISKAKGQPREPQVYTLPPSRDELTKNQVSLTCLVKGFYPSDIAVEWESNGQPENNYKTTPPVLDSDGSFFLYSKLTVDKSRWQQGNVFSCSVMHEALHNHYTQKSLSLSPGK
notes: Made in CHO DG44 cells
B2: TACI (d1-29, d107-154)-Fc5 (Fc fusion)
chain: AMRSCPEEQYWDPLLGTCMSCKTICNHQSQRTCAAFCRSLSCRKEQGKFYDHLLRDCISCASICGQHPKQCAYFCENEPKSSDKTHTCPPCPAPEAEGAPSVFLFPPKPKDTLMISRTPEVTCVVVDVSHEDPEVKFNWYVDGVEVHNAKTKPREEQYNSTYRVVSVLTVLHQDWLNGKEYKCKVSNKALPSSIEKTISKAKGQPREPQVYTLPPSRDELTKNQVSLTCLVKGFYPSDIAVEWESNGQPENNYKTTPPVLDSDGSFFLYSKLTVDKSRWQQGNVFSCSVMHEALHNHYTQKSLSLSPGK
B3: TACI (d1-29, d111-154)-Fc5 (Fc fusion)
chain: AMRSCPEEQYWDPLLGTCMSCKTICNHQSQRTCAAFCRSLSCRKEQGKFYDHLLRDCISCASICGQHPKQCAYFCENKLRSEPKSSDKTHTCPPCPAPEAEGAPSVFLFPPKPKDTLMISRTPEVTCVVVDVSHEDPEVKFNWYVDGVEVHNAKTKPREEQYNSTYRVVSVLTVLHQDWLNGKEYKCKVSNKALPSSIEKTISKAKGQPREPQVYTLPPSRDELTKNQVSLTCLVKGFYPSDIAVEWESNGQPENNYKTTPPVLDSDGSFFLYSKLTVDKSRWQQGNVFSCSVMHEALHNHYTQKSLSLSPGK
B4: TACI (d1-29, d120-154)-Fc5 (Fc fusion)
chain: AMRSCPEEQYWDPLLGTCMSCKTICNHQSQRTCAAFCRSLSCRKEQGKFYDHLLRDCISCASICGQHPKQCAYFCENKLRSPVNLPPELREPKSSDKTHTCPPCPAPEAEGAPSVFLFPPKPKDTLMISRTPEVTCVVVDVSHEDPEVKFNWYVDGVEVHNAKTKPREEQYNSTYRVVSVLTVLHQDWLNGKEYKCKVSNKALPSSIEKTISKAKGQPREPQVYTLPPSRDELTKNQVSLTCLVKGFYPSDIAVEWESNGQPENNYKTTPPVLDSDGSFFLYSKLTVDKSRWQQGNVFSCSVMHEALHNHYTQKSLSLSPGK

Columns and labels:
[1] = biological target: T1, ZTNF4 (Homo sapiens (Human), UniProt Q9Y275 134-285, limits assumed, radioiodinated with 125I (Iodobeads) in the binding assays; unlabeled ZTNF4 used to determine nonspecific binding); assay: competitive binding: TACI-Fc against plate-coated TACI-N for 125I-ZTNF4
T1 construct: also called BAFF
Procedure: (§1) An N-terminal fragment of the TACI receptor, designated as “TACI-N,” was added to 96-well plates (100 μl at 0.1 μg/ml), and incubated overnight at 4° C. The plates were washed, blocked with Superblock (Pierce), and washed again. […] After incubation, the plates were washed and counted. Each determination was performed in triplicate.

[2] = biological target: T1, ZTNF4; assay: solution binding: 0.05 nM TACI-Fc with 0.4 pM to 1.5 nM 125I-ZTNF4, Pansorbin precipitation
Procedure: At a concentration of 0.05 nM, each TACI-Fc construct was incubated with 0.4 pM to 1.5 nM ¹²⁵I-ZTNF4 for 30 minutes at room temperature in a total volume of 0.25 ml/tube. A Pansorbin (Staph A) suspension was added to each tube, and after 15 minutes, the samples were centrifuged, washed twice, and the pellets counted. Nonspecific binding was determined by the addition of 130 nM unlabeled ZTNF4 to the ¹²⁵I-ZTNF4/TACI-Fc mix. Specific binding was calculated by subtracting the cpm bound in the presence of unlabeled ZTNF4 from the total cpm bound at each concentration of ¹²⁵I-ZTNF4. Each determination was performed in triplicate. Binding constants were calculated using GraphPad Prism software (MacIntosh v. 3.0).

[3] = biological target: T1, ZTNF4; assay: competitive binding: TACI-Fc against plate-coated TACI-N for 125I-ZTNF4 (20 ng/ml); average of three experiments
Procedure: as §1

Binder | concentration giving complete inhibition [1] [ng/mL] | Bmax [2] [nM] | Kd [2] [nM] | IC50 [3] [nM]
B1 | ~100 | 0.023 | 0.134 | 2.07
B2 | ~100 | 0.01 | 0.121 | 4.95
B3 | ~100 | 0.018 | 0.115 | 2.31
B4 | ~100 | 0.021 | 0.092 | 2.21
